Test results published in patent US20090010925 (published 2009).

T1: VEGF(8-109) (human, UniProt P15692)
T1 chain: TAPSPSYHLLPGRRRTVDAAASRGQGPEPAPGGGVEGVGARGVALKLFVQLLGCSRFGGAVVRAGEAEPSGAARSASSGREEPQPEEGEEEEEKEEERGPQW


Biological target: T1, VEGF(8-109)
Test: SPR, 25C

| Kd [nM] | Binder |
| --- | --- |
| 0.36 | Y0313-2 (antibody, V domains shown) VH: EVQLVESGGGLVQPGGSLRLSCAASGYDFTHYGMNWVRQAPGKGLEWVGWINTYTGEPTYAADFKRRFTFSLDTSKSTAYLQMNSLRAEDTAVYYCAKYPHYYVNERKSHWYFDVWGQGTL VL: DIQLTQSPSSLSASVGDRVTITCRANEQLSNYLNWYQQKPGKAPKVLIYFTSSLHSGVPSRFSGSGSGTDFTLTISSLQPEDFATYYCQQYSTVPWTFGQGTKVEIKR |
| 2.7 | Y0241-6 (antibody, V domains shown) VH: EVQLVESGGGLVQPGGSLRLSCAASGYDYTNYGINWVRQAPGKGLEWVGWINTYTGEPTYAADFKRRFTFSLDTSKSTAYLQMNSLRAEDTAVYYCAKYPHYYGSSHWYFDVWGQGTL VL: DIQLTQSPSSLSASVGDRVTITCRANEQLSNYLNWYQQKPGKAPKVLIYFTSSLHSGVPSRFSGSGSGTDFTLTISSLQPEDFATYYCQQYSTVPWTFGQGTKVEIKR |
| 3 | Y0241-7 (antibody, V domains shown) VH: EVQLVESGGGLVQPGGSLRLSCAASGYDWTNYGINWVRQAPGKGLEWVGWINTYTGEPTYAADFKRRFTFSLDTSKSTAYLQMNSLRAEDTAVYYCAKYPHYYGSSHWYFDVWGQGTL VL: DIQLTQSPSSLSASVGDRVTITCRANEQLSNYLNWYQQKPGKAPKVLIYFTSSLHSGVPSRFSGSGSGTDFTLTISSLQPEDFATYYCQQYSTVPWTFGQGTKVEIKR |
| 4.6 | Y0239-2 (antibody, V domains shown) VH: EVQLVESGGGLVQPGGSLRLSCAASGYTFTNYGMNWVRQAPGKGLEWVGWINTYTGEPTYAADFKRRFTFSLDTSKSTAYLQMNSLRAEDTAVYYCAKYPHYYKNDKSSHWYFDVWGQGTL VL: DIQLTQSPSSLSASVGDRVTITCRANEQLSNYLNWYQQKPGKAPKVLIYFTSSLHSGVPSRFSGSGSGTDFTLTISSLQPEDFATYYCQQYSTVPWTFGQGTKVEIKR |
| 0.6 | Y0261-6 (antibody, V domains shown) VH: EVQLVESGGGLVQPGGSLRLSCAASGYTFTNYGMNWVRQAPGKGLEWVGWINTYTGEPTYAADFKRRFTFSLDTSKSTAYLQMNSLRAEDTAVYYCAKYPHYYLKDKKSHWYFDVWGQGTL VL: DIQLTQSPSSLSASVGDRVTITCRANEQLSNYLNWYQQKPGKAPKVLIYFTSSLHSGVPSRFSGSGSGTDFTLTISSLQPEDFATYYCQQYSTVPWTFGQGTKVEIKR |
| 0.6 | Y0239-12 (antibody, V domains shown) VH: EVQLVESGGGLVQPGGSLRLSCAASGYTFTNYGMNWVRQAPGKGLEWVGWINTYTGEPTYAADFKRRFTFSLDTSKSTAYLQMNSLRAEDTAVYYCAKYPHYYAHEKKSHWYFDVWGQGTL VL: DIQLTQSPSSLSASVGDRVTITCRANEQLSNYLNWYQQKPGKAPKVLIYFTSSLHSGVPSRFSGSGSGTDFTLTISSLQPEDFATYYCQQYSTVPWTFGQGTKVEIKR |
| 1.8 | Y0242-1 (antibody, V domains shown) VH: EVQLVESGGGLVQPGGSLRLSCAASGYTFTNYGMNWVRQAPGKGLEWVGWINTWTGEPTYAADFKRRFTFSLDTSKSTAYLQMNSLRAEDTAVYYCAKYPHYYGSSHWYFDVWGQGTL VL: DIQLTQSPSSLSASVGDRVTITCRANEQLSNYLNWYQQKPGKAPKVLIYFTSSLHSGVPSRFSGSGSGTDFTLTISSLQPEDFATYYCQQYSTVPWTFGQGTKVEIKR |
| 0.5 | Y0240-1 (antibody, V domains shown) VH: EVQLVESGGGLVQPGGSLRLSCAASGYTFTNYGMNWVRQAPGKGLEWVGWINTYTGEPTYAADFKRRFTFSLDTSKSTAYLQMNSLRAEDTAVYYCAKYPHYYLTDHKSHWYFDVWGQGTL VL: DIQLTQSPSSLSASVGDRVTITCRANEQLSNYLNWYQQKPGKAPKVLIYFTSSLHSGVPSRFSGSGSGTDFTLTISSLQPEDFATYYCQQYSTVPWTFGQGTKVEIKR |
| 0.3 | Y0239-19 (antibody, V domains shown) VH: EVQLVESGGGLVQPGGSLRLSCAASGYTFTNYGMNWVRQAPGKGLEWVGWINTYTGEPTYAADFKRRFTFSLDTSKSTAYLQMNSLRAEDTAVYYCAKYPHYYVNERKSHWYFDVWGQGTL VL: DIQLTQSPSSLSASVGDRVTITCRANEQLSNYLNWYQQKPGKAPKVLIYFTSSLHSGVPSRFSGSGSGTDFTLTISSLQPEDFATYYCQQYSTVPWTFGQGTKVEIKR |
